US20230174626A1

Target: HCMV glycoprotein H (gH) on TB40 virus (Human Cytomegalovirus (HCMV), TB40 virus)
Experiment: cell-based or functional assay

IC50 (µg/ml), HCMV TB40 neutralization on ARPE-19 epithelial cells: 0.89 µg/mL
IC50 (µg/ml), HCMV TB40 neutralization on MRC-5 fibroblasts: 0.46 µg/mL
Substance: mAb MSL-109 (antibody)
